Data: patent US20110287948A1, “MEASUREMENT OF MATERIAL PROPERTIES AND RELATED METHODS AND COMPOSITIONS BASED ON CYTOADHERENCE” (Massachusetts Institute of Technology, priority 2010, published 2011)

B1: CCL19: chemokine CCL19 (R&D Systems) used as chemoattractant for T cells (protein, UniProt Q99731 22-98, looked up)
C-C motif chemokine 19: GTNDAEDCCLSVTQKPIPGYIVRNFHYLLIKDGCRVPAVVFTTLRGRQLCAPPDQPWVERIIQRLQRTSAKMKRRSS

Experiments:
[1] = test system: Acute promyelocytic leukemia cells; details: cells induced to differentiate down the neutrophil lineage for three days; cited from earlier work
[2] = test system: WT T cells; assay: Micropipette aspiration of CCL19-stimulated migratory WT T cells; type: cell-based, mouse (Balb/c)
Protocol: (§1) Micropipettes made using a micropipette puller were trimmed to 2.5-3 or 4.5-5 μm inner diameter for testing naïve and activated T cells. MPA glass chambers consisted of a 24 mm×60 mm microscope coverslip bottom, a U-shaped parafilm spacer, and a 22 mm×22 mm microscope coverslip top. The assembly was baked for two hours at 80° C. to ensure good adhesion between the components.
(§2) Enriched WT and WAS−/− T cells in DMEM with 1% BSA and 0.1% Pen/Strep were induced to migrate through polycarbonate Transwell inserts (Costar, Cambridge, Mass.) with 5-μm pores in a 24-well plate toward a CCL19 chemokine source (R&D Systems, Minneapolis, Minn.). Inserts contained 5×10^5 cells in 100 μL of medium, and wells contained 1 mL of medium with either no CCL19 or 100 ng/mL of CCL19. Cells were allowed to migrate for ˜7 hours at 37° C., and those that crossed the membrane were collected and used for MPA studies.
(§3) 3×10^5 cells in 100 μL RPMI with 10% FBS and 1% HEPES was stained with 10 μL trypan blue. The mixture was added to 600 μL of either the RPMI medium or the T cell activation medium with IL-2 for naïve and activated T cell testing. Migratory T cells were tested in the medium used for migration. The MPA device was based on the design of Hochmuth et al (18). The aspiration rate and volume were 36 mL/hr and 2 mL, corresponding to a total pressure of ˜400 Pa. The cell movement in the micropipette was recorded with a CCD camera. Aspirations were performed at approximately room temperature.
MPA data were fitting using the half-space model (77) described by the expressions:
where E is the cell modulus, L is the length from the micropipette opening to the cell leading edge, Δp is the pressure differential at a particular L, ri and ro are the inner and outer […] of the micropipette, and φ is the wall function that is approximately […]. The ImageJ software was used to manually track the change in L. By plotting Δp against ri/L and finding the best linear fit (minimal total error) a modulus could be derived from the slope of the line. […]

[3] = test system: WT T cells; assay: FACS analysis of phenotype (CD62L/CD44) of WT T cells induced to migrate by CCL19; type: cell-based, mouse (Balb/c); details: WT cells that migrated after CCL19 exposure
Protocol: FIG. 68 depicts results of a FACS analysis of phenotype of naïve WT T cells induced to migrate by the chemokine CCL19. T cells were first gated on PI to exclude dead cells. The cell samples tested were naïve T cells not exposed to CCL 19 (A, D), cells that remained in the insert after CCL19 exposure (100 ng/mL) for seven hours (B, E), and cells that migrated across the insert membrane after the same chemokine treatment (C, F).
Cells from the peripheral lymph nodes and the spleen of Balb/c mice and WAS−/− mice on Balb/c background were pooled and enriched using the EasySep Mouse CD8+ T Cell Enrichment Kit from STEMCELL Technologies (British Columbia, Canada). Enrichment was confirmed using fluorescence-activated cell sorting (FACS) by staining the cells with FITC/anti-Thy1.2 and PE/anti-CD8a antibodies (Abs). The memory T cell population was assessed by evaluating the expression of CD44 and CD62L via FACS. T cells in an activation medium with 100 units/mL IL-2 and 1% anti-CD28 Ab were activated by plate-bound anti-CD3 Abs for 4 day at 37° C. The activation medium included RPMI with 10% FBS, 10 mM HEPES (1M), 1% NEAA, 1% sodium pyruvate (100 mM), […] (3-mercaptoethanol, 4 mM L-glutamine, and 100 μg/mL Pen/Strep. Cell activation was verified via FACS measurement of CD25. […]

[4] = test system: WAS−/− T cells; assay: In vitro Transwell cell migration toward CCL19, WAS-/- T cells; type: cell-based, mouse (WAS−/− on Balb/c background); details: seven hours of exposure to CCL19 (100 ng/mL), 5-μm pore inserts
Protocol: Cells from the peripheral lymph nodes and the spleen of Balb/c mice and WAS−/− mice on Balb/c background were pooled and enriched using the EasySep Mouse CD8+ T Cell Enrichment Kit from STEMCELL Technologies (British Columbia, Canada). Enrichment was confirmed using fluorescence-activated cell sorting (FACS) by staining the cells with FITC/anti-Thy1.2 and PE/anti-CD8a antibodies (Abs). The memory T cell population was assessed by evaluating the expression of CD44 and CD62L via FACS. T cells in an activation medium with 100 units/mL IL-2 and 1% anti-CD28 Ab were activated by plate-bound anti-CD3 Abs for 4 day at 37° C. The activation medium included RPMI with 10% FBS, 10 mM HEPES (1M), 1% NEAA, 1% sodium pyruvate (100 mM), […] (3-mercaptoethanol, 4 mM L-glutamine, and 100 μg/mL Pen/Strep. Cell activation was verified via FACS measurement of CD25. Enriched WT and WAS−/− T cells in DMEM with 1% BSA and 0.1% Pen/Strep were induced to migrate through polycarbonate Transwell inserts (Costar, Cambridge, Mass.) with 5-μm pores in a 24-well plate toward a CCL19 chemokine source (R&D Systems, Minneapolis, Minn.). Inserts contained 5×10^5 cells in 100 μL of medium, and wells contained 1 mL of medium with either no CCL19 or 100 ng/mL of CCL19. Cells were allowed to migrate for ˜7 hours at 37° C., and those that crossed the membrane were collected and used for MPA studies.

[5] = test system: WAS−/− T cells; assay: Micropipette aspiration of CCL19-stimulated migratory WAS-/- T cells; type: cell-based, mouse (WAS−/− on Balb/c background); details: naïve WAS−/− T cells that migrated in response to CCL19
Protocol: as §1, §2
as §3, with “The aspiration rate and volume were 36 mL/hr and 2 mL, corresponding to a total pressure of ˜400 Pa.” left out, “Aspirations were performed at approximately room temperature.” left out

Molecule | more compliant than the control (creep compliance) [1] [%] | stiffness compared to activated cells ([2]; migratory WT cells vs activated WT T cells) | modulus reduction from the value measured in the absence of CCL19 ([2]; migratory WT cells vs untreated naïve WT cells) | apparent Young's modulus (mean+/−SD) ([2]; naïve WT T cells that migrated in response to CCL19) | migrating cells stained CD62L high and CD44 low (naïve phenotype) [3] [%] | cells migrated [4] [%] | apparent Young's modulus (mean+/−SD) [5]
CC1=C(/C=C/C(C)=C/C=C/C(C)=C/C(=O)O)C(C)(C)CCC1 [all-trans retinoic acid] | 45 | – | – | – | – | – | –
B1 | – | about 1.4 times | more than 2 times | 128+/−33 Pa | ~90 | ~6.4 | 152+/−102 Pa
